Results as given in patent US9415135B2, “Methods and compositions for stabilizing the myocardium” (The Regents of the University of California, priority 2002, dated 2016).

What was measured:
MMP-3 = MMP-3 (Homo sapiens, UniProt P08254); settings: MMP-13 to MMP-3; cited from earlier work
MMP-9 = MMP-9 (Homo sapiens, UniProt P14780); settings: MMP-13 to MMP-9; cited from earlier work
MMP-1 = target: T1, MMP-1 (Homo sapiens, UniProt P03956); settings: MMP-13 to MMP-1; cited from earlier work
T1 sequence (P03956 100-469): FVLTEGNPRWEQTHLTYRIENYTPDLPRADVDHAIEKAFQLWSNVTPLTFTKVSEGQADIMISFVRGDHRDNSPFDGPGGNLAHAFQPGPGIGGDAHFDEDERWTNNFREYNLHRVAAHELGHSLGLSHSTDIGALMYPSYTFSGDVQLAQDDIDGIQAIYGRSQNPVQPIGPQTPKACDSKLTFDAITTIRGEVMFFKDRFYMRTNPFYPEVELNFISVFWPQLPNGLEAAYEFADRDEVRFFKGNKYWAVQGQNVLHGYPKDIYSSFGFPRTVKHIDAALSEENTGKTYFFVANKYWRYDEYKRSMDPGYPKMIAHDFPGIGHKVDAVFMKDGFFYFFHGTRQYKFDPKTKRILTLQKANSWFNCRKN

[1] = tested on: neural stem cells (NSCs) from adult hippocampus; experiment: NSC adhesion and proliferation on peptide-modified IPNs (CyQUANT); type: cell-based, rat
Description: Neural stem cells were isolated from the hippocampi of adult female Fischer 344 rats as previously described (Lai, K., et al., Nat Neurosci, 6(1):21-7 (2003)). Cells at (200-10,000 cells/well) were seeded onto peptide-modified IPNs and laminin-modified culture wells and incubated (37° C., 5% CO2) in serum-free media consisting of DMEM/Hams F-12 medium with N−2 supplement. These media conditions were supplemented with various soluble factors to modulate cell behavior: 20 ng·ml^−1 basic fibroblast growth factor (bFGF) for cell proliferation or 1 μM retinoic acid with 5 μM forskolin for neuronal differentiation. Wells were rinsed every 48 hrs with fresh media.
NSCs isolated from the adult hippocampus were seeded onto bsp-RGD(15)-modified IPNs at various cell densities over four orders of magnitude. […] 18(2):337-45 (2002)). Such spheres provide less precise control over the cellular microenvironment, due in part to spatial gradients in signaling and nutrients and internal necrosis.
For quantitative assays of proliferation, the NSCs were seeded at 1000 cells per well on various surfaces and grown for 3-6 days, and cell number was determined using a fluorescent dye that binds to nucleic acids, CyQUANT (Molecular Probes, Eugene, Oreg.). Briefly, cells grown on a particular surface for a fixed duration were washed once with phosphate buffer saline and lysed in the manufacturer's buffer with dye. Next, the fluorescent intensity of resulting solution was measured. […] Any increase in cell number on the negative control bsp-RGE(15)-modified IPNs reflected growth of weakly adherent neurospheres (FIG. 2d-e). About 10 pmol·cm^−2 bsp-RGD(15) was needed to support proliferation of NSCs, corresponding to ˜10^6 ligands per cell for the 10 μm diameter cells.

[2] = tested on: neural stem cells (NSCs) from adult hippocampus; experiment: NSC phenotype and differentiation on peptide-modified IPNs (qRT-PCR, immunofluorescent staining); type: cell-based, rat; settings: 1 μM retinoic acid with 5 μM forskolin
Description: Neural stem cells were isolated from the hippocampi of adult female Fischer 344 rats as previously described (Lai, K., et al., Nat Neurosci, 6(1):21-7 (2003)). Cells at (200-10,000 cells/well) were seeded onto peptide-modified IPNs and laminin-modified culture wells and incubated (37° C., 5% CO2) in serum-free media consisting of DMEM/Hams F-12 medium with N-2 supplement. These media conditions were supplemented with various soluble factors to modulate cell behavior: 20 ng·ml^-1 basic fibroblast growth factor (bFGF) for cell proliferation or 1 μM retinoic acid with 5 μM forskolin for neuronal differentiation. Wells were rinsed every 48 hrs with fresh media. […] To assay phenotype, two methods were used: quantitative real time PCR (qRT-PCR) and immunofluorescent staining. […] Quantitative real time PCR was used as a complementary technique to accurately quantify specific cDNA concentrations in various cDNA samples from cells grown on IPNs and laminin (using a Bio-Rad Laboratories iCycler). GFAP expression levels were quantified as a marker for astrocytic differentiation of the progenitor cells. β-Tubulin-III was used as a marker for neurons. […] The plasmids were linearized by restriction digest and quantified by absorbance, and tenfold serial dilutions from 1 ng/μL to 10^-9 ng/μL were prepared to generate a standard curve. […]

αvβ3 integrin = αvβ3 integrin (Homo sapiens, UniProt P05106+P06756); settings: high affinity; read-out: IC50, αvβ3 integrin binding; cited from earlier work
Chain of αvβ3 integrin (P06756 31-889 limits assumed): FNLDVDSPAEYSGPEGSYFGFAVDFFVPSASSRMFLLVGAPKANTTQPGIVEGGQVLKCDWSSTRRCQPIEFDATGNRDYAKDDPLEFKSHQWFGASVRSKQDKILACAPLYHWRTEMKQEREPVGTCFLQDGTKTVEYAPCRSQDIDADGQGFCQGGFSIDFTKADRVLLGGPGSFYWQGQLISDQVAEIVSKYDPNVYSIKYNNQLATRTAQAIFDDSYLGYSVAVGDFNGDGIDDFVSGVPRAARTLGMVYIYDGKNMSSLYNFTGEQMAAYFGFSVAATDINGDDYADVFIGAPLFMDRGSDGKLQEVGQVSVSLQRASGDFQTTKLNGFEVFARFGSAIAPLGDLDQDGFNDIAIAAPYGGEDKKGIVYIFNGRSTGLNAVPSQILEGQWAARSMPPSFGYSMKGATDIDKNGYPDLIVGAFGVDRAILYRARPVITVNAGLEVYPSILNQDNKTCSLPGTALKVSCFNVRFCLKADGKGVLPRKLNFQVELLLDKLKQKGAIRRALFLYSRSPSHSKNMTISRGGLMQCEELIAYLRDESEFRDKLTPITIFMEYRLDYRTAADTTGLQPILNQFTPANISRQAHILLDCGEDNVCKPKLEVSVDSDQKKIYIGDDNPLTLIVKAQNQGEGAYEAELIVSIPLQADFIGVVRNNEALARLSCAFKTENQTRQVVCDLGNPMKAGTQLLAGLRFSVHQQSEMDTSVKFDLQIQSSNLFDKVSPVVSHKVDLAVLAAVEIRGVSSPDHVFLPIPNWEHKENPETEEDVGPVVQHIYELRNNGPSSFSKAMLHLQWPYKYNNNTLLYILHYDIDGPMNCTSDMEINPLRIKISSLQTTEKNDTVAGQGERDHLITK
Chain of αvβ3 integrin (P06756 891-1048 partner limits assumed): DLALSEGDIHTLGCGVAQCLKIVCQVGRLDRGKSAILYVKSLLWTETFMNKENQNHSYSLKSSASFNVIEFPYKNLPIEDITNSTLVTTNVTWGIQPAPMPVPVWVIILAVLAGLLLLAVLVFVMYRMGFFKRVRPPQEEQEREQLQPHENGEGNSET
Chain of αvβ3 integrin (P05106 27-788): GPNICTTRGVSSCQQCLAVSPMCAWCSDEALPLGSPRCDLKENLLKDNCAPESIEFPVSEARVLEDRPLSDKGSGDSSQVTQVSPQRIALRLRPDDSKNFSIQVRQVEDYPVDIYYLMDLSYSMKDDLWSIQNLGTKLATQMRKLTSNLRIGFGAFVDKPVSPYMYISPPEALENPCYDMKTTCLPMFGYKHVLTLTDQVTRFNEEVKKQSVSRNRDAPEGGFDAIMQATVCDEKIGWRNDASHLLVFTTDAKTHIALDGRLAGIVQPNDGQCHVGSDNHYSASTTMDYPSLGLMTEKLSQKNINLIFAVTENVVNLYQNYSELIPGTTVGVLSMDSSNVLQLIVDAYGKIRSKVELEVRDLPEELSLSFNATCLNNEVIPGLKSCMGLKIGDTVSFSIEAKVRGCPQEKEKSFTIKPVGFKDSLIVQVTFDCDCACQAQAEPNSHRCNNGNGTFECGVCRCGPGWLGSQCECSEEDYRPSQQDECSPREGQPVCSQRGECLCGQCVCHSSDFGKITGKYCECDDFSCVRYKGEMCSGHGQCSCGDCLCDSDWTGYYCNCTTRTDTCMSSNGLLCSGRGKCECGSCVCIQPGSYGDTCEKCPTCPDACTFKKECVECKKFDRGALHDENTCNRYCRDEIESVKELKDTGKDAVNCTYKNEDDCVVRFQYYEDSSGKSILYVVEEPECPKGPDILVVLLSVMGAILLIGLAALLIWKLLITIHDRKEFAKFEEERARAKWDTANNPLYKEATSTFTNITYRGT

αvβ5 integrin = αvβ5 integrin (Homo sapiens, UniProt P06756+P18084); settings: low affinity; cited from earlier work
Chain of αvβ5 integrin (P06756 31-889 limits assumed): as the sequence (P06756 31-889 limits assumed) above
Chain of αvβ5 integrin (P06756 891-1048 partner limits assumed): as the sequence (P06756 891-1048 partner limits assumed) above
Chain of αvβ5 integrin (P18084 24-799): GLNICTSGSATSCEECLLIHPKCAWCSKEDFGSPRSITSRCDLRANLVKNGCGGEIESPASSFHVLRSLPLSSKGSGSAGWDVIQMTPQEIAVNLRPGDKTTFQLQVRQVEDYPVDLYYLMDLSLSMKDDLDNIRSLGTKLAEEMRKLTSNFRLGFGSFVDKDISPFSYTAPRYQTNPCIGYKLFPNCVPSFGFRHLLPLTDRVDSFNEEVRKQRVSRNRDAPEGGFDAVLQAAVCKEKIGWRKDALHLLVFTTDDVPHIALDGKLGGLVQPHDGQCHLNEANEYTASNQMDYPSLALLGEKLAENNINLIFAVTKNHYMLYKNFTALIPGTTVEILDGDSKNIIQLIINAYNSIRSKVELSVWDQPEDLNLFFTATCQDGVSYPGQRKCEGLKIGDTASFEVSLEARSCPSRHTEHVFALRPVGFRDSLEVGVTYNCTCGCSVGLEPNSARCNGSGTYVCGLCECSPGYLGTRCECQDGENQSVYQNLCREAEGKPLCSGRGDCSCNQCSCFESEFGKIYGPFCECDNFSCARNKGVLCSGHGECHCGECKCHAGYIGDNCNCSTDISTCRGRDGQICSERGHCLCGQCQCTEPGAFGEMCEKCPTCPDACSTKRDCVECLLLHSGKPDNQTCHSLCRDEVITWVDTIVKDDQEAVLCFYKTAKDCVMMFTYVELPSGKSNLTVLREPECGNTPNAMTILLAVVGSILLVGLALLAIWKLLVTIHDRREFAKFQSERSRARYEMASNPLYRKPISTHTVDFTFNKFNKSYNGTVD

αIIBβ3 integrin = αIIBβ3 integrin (Homo sapiens, UniProt P05106+P08514); settings: low affinity; cited from earlier work
Chain of αIIBβ3 integrin (P08514 32-887 limits assumed): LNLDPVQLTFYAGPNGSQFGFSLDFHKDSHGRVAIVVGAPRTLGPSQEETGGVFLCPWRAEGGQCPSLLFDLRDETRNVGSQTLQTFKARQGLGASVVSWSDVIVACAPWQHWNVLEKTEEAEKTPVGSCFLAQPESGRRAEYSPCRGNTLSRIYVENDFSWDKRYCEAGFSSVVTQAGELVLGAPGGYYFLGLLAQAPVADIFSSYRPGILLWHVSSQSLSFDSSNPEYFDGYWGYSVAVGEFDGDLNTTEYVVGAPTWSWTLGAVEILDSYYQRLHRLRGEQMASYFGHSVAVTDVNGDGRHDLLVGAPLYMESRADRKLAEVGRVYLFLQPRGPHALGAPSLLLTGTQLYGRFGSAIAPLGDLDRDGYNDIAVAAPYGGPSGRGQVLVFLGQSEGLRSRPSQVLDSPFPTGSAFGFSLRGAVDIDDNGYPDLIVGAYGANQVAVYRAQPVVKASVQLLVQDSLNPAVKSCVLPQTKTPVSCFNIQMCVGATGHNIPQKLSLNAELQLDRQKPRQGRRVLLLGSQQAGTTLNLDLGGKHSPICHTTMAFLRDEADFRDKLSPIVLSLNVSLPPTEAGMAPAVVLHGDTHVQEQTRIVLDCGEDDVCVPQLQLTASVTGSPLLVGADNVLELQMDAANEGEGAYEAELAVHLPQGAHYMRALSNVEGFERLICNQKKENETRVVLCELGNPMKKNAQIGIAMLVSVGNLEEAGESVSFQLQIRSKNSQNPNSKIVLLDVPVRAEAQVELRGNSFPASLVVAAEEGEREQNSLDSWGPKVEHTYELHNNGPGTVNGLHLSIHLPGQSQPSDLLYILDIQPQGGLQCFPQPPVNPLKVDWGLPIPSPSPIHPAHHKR
Chain of αIIBβ3 integrin (P08514 891-1039 partner limits assumed): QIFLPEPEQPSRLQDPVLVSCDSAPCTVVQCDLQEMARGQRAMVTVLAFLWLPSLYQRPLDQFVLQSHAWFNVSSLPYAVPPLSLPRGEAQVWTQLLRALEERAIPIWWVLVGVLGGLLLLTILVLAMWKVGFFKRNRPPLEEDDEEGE
Chain of αIIBβ3 integrin (P05106 27-788): as the sequence (P05106 27-788) above

Chain of MMP-3 (P08254 100-477, species assumed): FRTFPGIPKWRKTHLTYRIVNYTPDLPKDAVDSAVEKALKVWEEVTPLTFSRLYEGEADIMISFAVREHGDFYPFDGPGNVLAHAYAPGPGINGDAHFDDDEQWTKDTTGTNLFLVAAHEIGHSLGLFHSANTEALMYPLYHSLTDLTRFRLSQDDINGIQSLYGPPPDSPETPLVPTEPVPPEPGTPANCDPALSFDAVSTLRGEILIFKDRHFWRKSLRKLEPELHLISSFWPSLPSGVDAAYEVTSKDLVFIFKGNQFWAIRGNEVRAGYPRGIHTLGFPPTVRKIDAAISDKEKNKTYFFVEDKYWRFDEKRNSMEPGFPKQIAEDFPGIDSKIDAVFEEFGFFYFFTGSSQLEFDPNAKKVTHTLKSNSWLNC
Chain of MMP-9 (P14780 94-707, species assumed): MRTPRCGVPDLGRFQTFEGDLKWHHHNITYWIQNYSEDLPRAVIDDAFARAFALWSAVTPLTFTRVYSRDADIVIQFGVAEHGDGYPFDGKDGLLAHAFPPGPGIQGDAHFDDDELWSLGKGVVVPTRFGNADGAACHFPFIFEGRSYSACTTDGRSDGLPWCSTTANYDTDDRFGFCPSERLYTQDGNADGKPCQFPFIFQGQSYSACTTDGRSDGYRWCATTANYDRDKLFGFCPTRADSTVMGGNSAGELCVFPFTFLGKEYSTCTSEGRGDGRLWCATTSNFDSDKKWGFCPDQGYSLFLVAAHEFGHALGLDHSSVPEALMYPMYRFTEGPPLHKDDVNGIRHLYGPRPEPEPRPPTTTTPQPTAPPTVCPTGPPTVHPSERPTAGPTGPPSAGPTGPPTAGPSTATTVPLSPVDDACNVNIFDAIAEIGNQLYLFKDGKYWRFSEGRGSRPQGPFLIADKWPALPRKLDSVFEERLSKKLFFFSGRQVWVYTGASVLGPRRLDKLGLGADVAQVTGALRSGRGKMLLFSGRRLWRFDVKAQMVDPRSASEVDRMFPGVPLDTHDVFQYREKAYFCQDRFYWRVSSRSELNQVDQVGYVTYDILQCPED

Substance | Selectivity (kcat/Km ratio for MMP-13 to MMP-x), MMP-3 (MMP-3) | Selectivity (kcat/Km ratio for MMP-13 to MMP-x), MMP-9 (MMP-9) | Selectivity (kcat/Km ratio for MMP-13 to MMP-x), MMP-1 (MMP-1) | further results
C2-12P3A: literature MMP-13 peptide substrate, P4-P3' G A L G L S L (SEQ ID NO: 26) (GALGLSL; test peptide substrate) [Sample C2-12P3A] | 14 | 4.6 | 8.3 | 
C2-22: literature MMP-13 peptide substrate, P4-P4' G P R P F N Y L (SEQ ID NO: 24) (GPRPFNYL; test peptide substrate) [Sample C2-22] | 7.9 | 21 | 180 | 
C3-16: literature MMP-13 peptide substrate, P4-P4' G P K G V Y S L (SEQ ID NO: 27) (GPKGVYSL; test peptide substrate) [Sample C3-16] | 3600 | 2.2 | 5500 | 
C5-27: literature MMP-13 peptide substrate, P4-P4' G P F G F K S L (SEQ ID NO: 25) (GPFGFKSL; test peptide substrate) [Sample C5-27] | 250 | 4.8 | 2900 | 
CGGNGEPRGDTYRAY (15-mer bone sialopeptide sequence; bsp-RGD(15)) |  |  |  | bsp-RGD(15) surface density needed to support proliferation of NSCs ([1]; grafted on IPN): About 10 pmol·cm^−2
CGGNGEPRGETYRAY (bone sialopeptide sequence; bsp-RGE(15)) |  |  |  | NSC adhesion / attachment ([1]; proliferating or differentiating media conditions): did not support attachment
CP: literature MMP-13 peptide substrate, P4-P4' G P L G M R G L (SEQ ID NO: 23) (GPLGMRGL; test peptide substrate) | 1300 | 11 | 820 | 
CSRARKQAASIKVAVSADR (lam-IKVAV(19) peptide) |  |  |  | NSC differentiation into neural lineages [2]: did not enhance either cell proliferation or differentiation; NSC proliferation ([1]; proliferating media (bFGF)): did not enhance either cell proliferation or differentiation
H-Glu[cyclo (Arg-Gly-Asp-D-Phe-Lys)]2 [bicyclic RGD peptide reported by Janssen et al] |  |  |  | IC50 (αvβ3 integrin): 0.0009 µM; IC50 (αvβ5 integrin): 0.01 µM; IC50 (αIIBβ3 integrin): 0.01 µM
